The values that follow are results of earlier work, collected in PMC8622359.

Like-named read-outs stand apart in the source and are kept apart here.

Series [1] addresses SAC3B (Arabidopsis thaliana) (UniProt F4JAU2). Put plainly: given as Ka.
For series [2], the target named is AtRAD4 (Arabidopsis thaliana).
Series [3] deals with SAC3B (Arabidopsis thaliana) (UniProt F4JAU2). The experiment in a line: given as Ka. The source holds these as a separate data set.
In series [4] the target is AtRAD4 (Arabidopsis thaliana). The source holds these as a separate data set.
Series [5] deals with Transducin β (Homo sapiens) (UniProt P62873). Put plainly: given as Ka.
Series [6] deals with HsSFI1 (R18) (Homo sapiens). Put plainly: given as Ka.
Series [7] addresses HsSFI1 (R18) (Homo sapiens). The experiment in a line: given as Ka. This is another data set of the same source.
Series [8] concerns the target HsSFI1 (R17) (Homo sapiens). The experiment in a line: given as Ka.
Another series addresses PRP40A (Homo sapiens) (UniProt O75400). The experiment in a line: given as Ka.
Series [9] addresses XPC (Homo sapiens). The experiment in a line: given as Ka.
Series [10] has as its target XPC (Homo sapiens). Put plainly: given as Ka. The source holds these as a separate data set.
The target of series [11] is HsSFI1 (R17) (Homo sapiens). The experiment in a line: given as Ka. This is another data set of the same source.
In series [12] the target is ScSFI1 (R19) (Saccharomyces cerevisiae). Put plainly: given as Ka.
Series [13] shares this target. The experiment in a line: given as Ka. This is another data set of the same source.
In series [14] the target is SAC3 (Saccharomyces cerevisiae). The experiment in a line: given as Ka.
In series [15] the target is SAC3 (Saccharomyces cerevisiae) (UniProt P46674). Put plainly: given as Ka.
Series [16] has as its target KAR1 (Saccharomyces cerevisiae) (UniProt P11927). Put plainly: given as Ka.
Series [17] concerns the target ScSFI1 (R18) (Saccharomyces cerevisiae). The experiment in a line: given as Ka.
In series [18] the target is SAC3 (Saccharomyces cerevisiae) (UniProt P46674).
Series [19] has as its target KAR1 (Saccharomyces cerevisiae) (UniProt P11927). Put plainly: given as Ka. This is another data set of the same source.
The target of series [20] is ScSFI1 (R18) (Saccharomyces cerevisiae). Put plainly: given as Ka. This is another data set of the same source.
Series [21] addresses SAC3 (Saccharomyces cerevisiae) (UniProt P46674). This is another data set of the same source.

CDC31, sequence (P06704 whole entry): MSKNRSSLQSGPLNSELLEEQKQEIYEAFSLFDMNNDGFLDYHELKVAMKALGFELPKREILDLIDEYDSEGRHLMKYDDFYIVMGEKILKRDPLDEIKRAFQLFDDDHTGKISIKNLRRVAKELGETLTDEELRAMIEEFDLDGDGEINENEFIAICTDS
HsCEN1, sequence (Q12798 whole entry): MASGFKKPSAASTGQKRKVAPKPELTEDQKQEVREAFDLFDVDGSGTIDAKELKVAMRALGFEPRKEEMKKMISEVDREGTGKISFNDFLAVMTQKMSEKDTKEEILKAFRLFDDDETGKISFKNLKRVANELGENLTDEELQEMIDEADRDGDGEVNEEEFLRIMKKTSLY
HsCEN2, sequence (P41208 2-172): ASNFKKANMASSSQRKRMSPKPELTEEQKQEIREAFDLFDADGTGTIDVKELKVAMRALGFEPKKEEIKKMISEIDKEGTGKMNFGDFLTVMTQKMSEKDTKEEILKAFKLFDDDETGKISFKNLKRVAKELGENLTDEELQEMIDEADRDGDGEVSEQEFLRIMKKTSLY
AtCEN2, sequence (O23184 whole entry): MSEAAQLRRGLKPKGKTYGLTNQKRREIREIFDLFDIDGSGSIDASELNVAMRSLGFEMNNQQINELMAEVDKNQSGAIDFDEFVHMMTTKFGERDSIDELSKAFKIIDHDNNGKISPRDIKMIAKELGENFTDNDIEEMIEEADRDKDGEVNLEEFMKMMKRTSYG
HsSFI1 (R18) (Homo sapiens), sequence (A8K8P3 670-692): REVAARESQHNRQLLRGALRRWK
ScSFI1 (R19) (Saccharomyces cerevisiae), sequence (Q12369 710-729): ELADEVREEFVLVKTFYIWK
SAC3B (Arabidopsis thaliana), sequence (F4JAU2 1050-1075): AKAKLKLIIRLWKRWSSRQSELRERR
ScSFI1 (R18) (Saccharomyces cerevisiae), sequence (Q12369 680-699): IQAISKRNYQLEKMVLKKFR
HsSFI1 (R17) (Homo sapiens), sequence (A8K8P3 641-660): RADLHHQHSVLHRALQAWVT
PRP40A (Homo sapiens), sequence (O75400 524-556): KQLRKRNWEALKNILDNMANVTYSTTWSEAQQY

With AtCEN2 (from UniProt O23184), the dissociation constant Kd was 667 nM in [1], 54 nM in [2], 2440 nM in series [3] and 8000 nM in series [4].
For the substance HsCEN1 (from UniProt Q12798), the Kd in series [5] was 5880 nM; in [6] it was 831 nM; in series [7], 333000 nM.
Regarding HsCEN2 (from UniProt P41208), the Kd in series [8] was 154 nM; with PRP40A (Homo sapiens), 278 nM; with XPC (Homo sapiens) [9], 5.88 nM; in the series with XPC (Homo sapiens) [10], 125 nM; in series [11], 4000 nM.
Take CDC31 (from UniProt P06704): the Kd was 28.6 nM in [12]; 5260 nM in series [13]; 45.5 nM in [14]; 667 nM in series [15]; 43.5 nM in series [16]; 100 nM in [17]. Besides, the Kd is 677 nM in [18], 2270 nM in series [19], 4170 nM in [20] and 45 nM in series [21].
